Patent publication US10941182 (Amgen, dated 2021)
Starred links: 1 amine or outer side, 2 acyl side, 3 side chain; linkers in the order of their positions; H or OH if unused. Non-standard residues stand in square brackets, D forms with d. Primed or numbered codes have the meaning given here. *: point of attachment. AC4Abu = α-carboxy-4-aminobutyric acid, O=C(C(CCN[*:1])C(=O)[*:3])[*:2]; Oic = O=C(O)[C@@H]1C[C@@H]2CCCC[C@@H]2N1; Phe(4-Cl) = N[C@@H](Cc1ccc(Cl)cc1)C(=O)O; γGlu = O=C(O)[C@H](CCC(=O)[*:2])N[*:1]; NMeR = CN[C@@H](CCCNC(=N)N)C(=O)O; Tridecanoyl = CCCCCCCCCCCCC(=O)*; hArg = N=C(N)NCCCC[C@H](N)C(=O)O; Cha = N[C@@H](CC1CCCCC1)C(=O)O; αMeL = CC(C)C[C@](C)(N)C(=O)O; Tle = CC(C)(C)[C@H](N)C(=O)O; αMeP = C[C@@]1(C(=O)O)CCCN1; Nle = CCCC[C@H](N)C(=O)O; Pip′ = not defined here; Deg = CCC(N)(CC)C(=O)O; AEEA = NCCOCCOCC(=O)O; Aib = CC(C)(N)C(=O)O; BLeu = β-leucine

T1: rat APJ receptor (rat, UniProt Q9JHG3 1-377)
T1 sequence (looked up): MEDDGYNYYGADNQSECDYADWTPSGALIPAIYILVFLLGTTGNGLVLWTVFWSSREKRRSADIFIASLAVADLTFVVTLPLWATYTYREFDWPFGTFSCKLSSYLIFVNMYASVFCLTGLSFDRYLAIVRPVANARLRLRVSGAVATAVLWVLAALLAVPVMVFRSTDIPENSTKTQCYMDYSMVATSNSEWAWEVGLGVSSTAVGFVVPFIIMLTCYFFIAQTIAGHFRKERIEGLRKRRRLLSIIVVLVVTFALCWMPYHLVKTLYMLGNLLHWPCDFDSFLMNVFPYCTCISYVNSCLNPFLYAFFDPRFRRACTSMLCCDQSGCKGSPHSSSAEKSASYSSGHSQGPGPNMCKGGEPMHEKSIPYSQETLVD

T2: human APJ receptor (human, UniProt P35414 1-380)
T2 sequence (looked up): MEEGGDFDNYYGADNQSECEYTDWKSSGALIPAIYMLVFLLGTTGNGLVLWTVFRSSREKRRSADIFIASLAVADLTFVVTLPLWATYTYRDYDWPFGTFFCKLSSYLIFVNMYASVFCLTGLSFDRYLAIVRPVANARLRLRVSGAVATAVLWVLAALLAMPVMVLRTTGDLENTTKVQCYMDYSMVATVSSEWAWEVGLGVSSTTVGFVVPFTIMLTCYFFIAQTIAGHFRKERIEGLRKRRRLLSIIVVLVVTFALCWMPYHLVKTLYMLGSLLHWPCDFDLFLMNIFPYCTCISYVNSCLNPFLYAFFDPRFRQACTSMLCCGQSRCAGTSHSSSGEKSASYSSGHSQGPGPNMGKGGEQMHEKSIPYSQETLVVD

B1: Apelin polypeptide SEQ ID NO: 434 (peptide)
peptide: Tridecanoyl-[γGlu][AEEA][AEEA][dQ][hArg]P[dR][Deg]SHKG[Oic][Nle]P[Phe(4-Cl)]-OH
SMILES: CCCCCCCCCCCCC(=O)N[C@@H](CCC(=O)NCCOCCOCC(=O)NCCOCCOCC(=O)N[C@H](CCC(N)=O)C(=O)N[C@@H](CCCCNC(=N)N)C(=O)N1CCC[C@H]1C(=O)N[C@H](CCCNC(=N)N)C(=O)NC(CC)(CC)C(=O)N[C@@H](CO)C(=O)N[C@@H](Cc1c[nH]cn1)C(=O)N[C@@H](CCCCN)C(=O)NCC(=O)N1[C@H](C(=O)N[C@@H](CCCC)C(=O)N2CCC[C@H]2C(=O)N[C@@H](Cc2ccc(Cl)cc2)C(=O)O)C[C@@H]2CCCC[C@@H]21)C(=O)O
B2: Apelin polypeptide SEQ ID NO: 433 (peptide)
peptide: Tridecanoyl-[γGlu][AEEA][AEEA][dQ][hArg]P[dR][Tle]SHKG[Oic][Nle]P[Phe(4-Cl)]-OH
SMILES: CCCCCCCCCCCCC(=O)N[C@@H](CCC(=O)NCCOCCOCC(=O)NCCOCCOCC(=O)N[C@H](CCC(N)=O)C(=O)N[C@@H](CCCCNC(=N)N)C(=O)N1CCC[C@H]1C(=O)N[C@H](CCCNC(=N)N)C(=O)N[C@H](C(=O)N[C@@H](CO)C(=O)N[C@@H](Cc1c[nH]cn1)C(=O)N[C@@H](CCCCN)C(=O)NCC(=O)N1[C@H](C(=O)N[C@@H](CCCC)C(=O)N2CCC[C@H]2C(=O)N[C@@H](Cc2ccc(Cl)cc2)C(=O)O)C[C@@H]2CCCC[C@@H]21)C(C)(C)C)C(=O)O
B3: Apelin polypeptide SEQ ID NO: 520 (peptide)
peptide: Tridecanoyl-[γGlu][AEEA][AEEA]QP[NMeR][Cha]SHKG[Oic][Nle][Aib][Phe(4-Cl)]-OH
SMILES: CCCCCCCCCCCCC(=O)N[C@@H](CCC(=O)NCCOCCOCC(=O)NCCOCCOCC(=O)N[C@@H](CCC(N)=O)C(=O)N1CCC[C@H]1C(=O)N(C)[C@@H](CCCNC(=N)N)C(=O)N[C@@H](CC1CCCCC1)C(=O)N[C@@H](CO)C(=O)N[C@@H](Cc1c[nH]cn1)C(=O)N[C@@H](CCCCN)C(=O)NCC(=O)N1[C@H](C(=O)N[C@@H](CCCC)C(=O)NC(C)(C)C(=O)N[C@@H](Cc2ccc(Cl)cc2)C(=O)O)C[C@@H]2CCCC[C@@H]21)C(=O)O
B4: Apelin polypeptide SEQ ID NO: 525 (peptide)
peptide: Tridecanoyl-[γGlu][AEEA][AEEA][dQ][dE]P[NMeR][Cha]SHKG[Oic][Nle][Aib][Phe(4-Cl)]-OH
SMILES: CCCCCCCCCCCCC(=O)N[C@@H](CCC(=O)NCCOCCOCC(=O)NCCOCCOCC(=O)N[C@H](CCC(N)=O)C(=O)N[C@H](CCC(=O)O)C(=O)N1CCC[C@H]1C(=O)N(C)[C@@H](CCCNC(=N)N)C(=O)N[C@@H](CC1CCCCC1)C(=O)N[C@@H](CO)C(=O)N[C@@H](Cc1c[nH]cn1)C(=O)N[C@@H](CCCCN)C(=O)NCC(=O)N1[C@H](C(=O)N[C@@H](CCCC)C(=O)NC(C)(C)C(=O)N[C@@H](Cc2ccc(Cl)cc2)C(=O)O)C[C@@H]2CCCC[C@@H]21)C(=O)O
B5: Apelin polypeptide SEQ ID NO: 503 (peptide)
peptide: XXXQRPRLSHKGXXPF
modifications: {TDA}[AC4Abu][Aeea][Aeea]qR[aMePro][hArg][BLeu]SHKG[Pip][Nle][aMePro][4-Cl-F]{COOH}
B6: Apelin polypeptide SEQ ID NO: 373 (peptide)
peptide: Tridecanoyl-[γGlu][AEEA][AEEA][dQ][hArg]P[dR][Cha]SYKG[Oic][Nle]P[Phe(4-Cl)]-OH
SMILES: CCCCCCCCCCCCC(=O)N[C@@H](CCC(=O)NCCOCCOCC(=O)NCCOCCOCC(=O)N[C@H](CCC(N)=O)C(=O)N[C@@H](CCCCNC(=N)N)C(=O)N1CCC[C@H]1C(=O)N[C@H](CCCNC(=N)N)C(=O)N[C@@H](CC1CCCCC1)C(=O)N[C@@H](CO)C(=O)N[C@@H](Cc1ccc(O)cc1)C(=O)N[C@@H](CCCCN)C(=O)NCC(=O)N1[C@H](C(=O)N[C@@H](CCCC)C(=O)N2CCC[C@H]2C(=O)N[C@@H](Cc2ccc(Cl)cc2)C(=O)O)C[C@@H]2CCCC[C@@H]21)C(=O)O
B7: Apelin polypeptide SEQ ID NO: 596 (peptide)
peptide: Tridecanoyl-[γGlu][AEEA][AEEA][dQ][hArg]P[dR][Cha]SHKG[Oic][Nle][Oic]-OH
SMILES: CCCCCCCCCCCCC(=O)N[C@@H](CCC(=O)NCCOCCOCC(=O)NCCOCCOCC(=O)N[C@H](CCC(N)=O)C(=O)N[C@@H](CCCCNC(=N)N)C(=O)N1CCC[C@H]1C(=O)N[C@H](CCCNC(=N)N)C(=O)N[C@@H](CC1CCCCC1)C(=O)N[C@@H](CO)C(=O)N[C@@H](Cc1c[nH]cn1)C(=O)N[C@@H](CCCCN)C(=O)NCC(=O)N1[C@H](C(=O)N[C@@H](CCCC)C(=O)N2[C@H](C(=O)O)C[C@@H]3CCCC[C@@H]32)C[C@@H]2CCCC[C@@H]21)C(=O)O
B8: Apelin polypeptide SEQ ID NO: 524 (peptide)
peptide: Tridecanoyl-[γGlu][AEEA][AEEA][dQ]EP[NMeR][Cha]SHKG[Oic][Nle][Aib][Phe(4-Cl)]-OH
SMILES: CCCCCCCCCCCCC(=O)N[C@@H](CCC(=O)NCCOCCOCC(=O)NCCOCCOCC(=O)N[C@H](CCC(N)=O)C(=O)N[C@@H](CCC(=O)O)C(=O)N1CCC[C@H]1C(=O)N(C)[C@@H](CCCNC(=N)N)C(=O)N[C@@H](CC1CCCCC1)C(=O)N[C@@H](CO)C(=O)N[C@@H](Cc1c[nH]cn1)C(=O)N[C@@H](CCCCN)C(=O)NCC(=O)N1[C@H](C(=O)N[C@@H](CCCC)C(=O)NC(C)(C)C(=O)N[C@@H](Cc2ccc(Cl)cc2)C(=O)O)C[C@@H]2CCCC[C@@H]21)C(=O)O
B9: Apelin polypeptide SEQ ID NO: 475 (peptide)
peptide: Tridecanoyl-[γGlu][AEEA][AEEA]QEP[NMeR]LSHKGP[Nle]P[Phe(4-Cl)]-OH
SMILES: CCCCCCCCCCCCC(=O)N[C@@H](CCC(=O)NCCOCCOCC(=O)NCCOCCOCC(=O)N[C@@H](CCC(N)=O)C(=O)N[C@@H](CCC(=O)O)C(=O)N1CCC[C@H]1C(=O)N(C)[C@@H](CCCNC(=N)N)C(=O)N[C@@H](CC(C)C)C(=O)N[C@@H](CO)C(=O)N[C@@H](Cc1c[nH]cn1)C(=O)N[C@@H](CCCCN)C(=O)NCC(=O)N1CCC[C@H]1C(=O)N[C@@H](CCCC)C(=O)N1CCC[C@H]1C(=O)N[C@@H](Cc1ccc(Cl)cc1)C(=O)O)C(=O)O
B10: Apelin polypeptide SEQ ID NO: 397 (peptide)
peptide: Tridecanoyl-[AC4Abu][AEEA][AEEA]Q[NMeR][αMeL]SHKG[Oic][Nle]P[Phe(4-Cl)]-OH
SMILES: CCCCCCCCCCCCC(=O)NCCC(C(=O)O)C(=O)NCCOCCOCC(=O)NCCOCCOCC(=O)N[C@@H](CCC(N)=O)C(=O)N(C)[C@@H](CCCNC(=N)N)C(=O)N[C@@](C)(CC(C)C)C(=O)N[C@@H](CO)C(=O)N[C@@H](Cc1c[nH]cn1)C(=O)N[C@@H](CCCCN)C(=O)NCC(=O)N1[C@H](C(=O)N[C@@H](CCCC)C(=O)N2CCC[C@H]2C(=O)N[C@@H](Cc2ccc(Cl)cc2)C(=O)O)C[C@@H]2CCCC[C@@H]21
B11: Apelin polypeptide SEQ ID NO: 504 (peptide)
peptide: XXXQRPRLSHKGPXPF
modifications: {TDA}[AC4Abu][Aeea][Aeea]qR[aMePro][hArg][BLeu]SHKG[aMePro][Nle][aMePro][4-Cl-F]{COOH}

Biological target: T1, rat APJ receptor
Assay: cell-based or functional assay

Row | Binder | EC50 Rat APJ Receptor (GTPγS assay) [nM]
1 | B1 | 11.4
2 | B2 | 19.8
3 | B3 | 56.1
4 | B4 | 243
5 | Tridecanoyl-[AC4Abu][AEEA][AEEA]QR[αMeP][hArg][BLeu]SHKG[Oic][Nle]P[Phe(4-Cl)]-OH [Apelin polypeptide SEQ ID NO: 392] | 0.856
6 | Tridecanoyl-[γGlu][AEEA][AEEA][dQ]R[αMeP][hArg][BLeu]SHKG[Oic][Nle][Aib][Phe(4-Cl)]-OH [Apelin polypeptide SEQ ID NO: 505] | 0.516
7 | B5 | 2.12
8 | B6 | 3.31
9 | B7 | 33.9
10 | Tridecanoyl-[γGlu][AEEA][AEEA][dQ]R[αMeP][hArg][BLeu]SHKG[Oic][Nle][αMeP][Phe(4-Cl)]-OH [Apelin polypeptide SEQ ID NO: 502] | 4.81
11 | B8 | 346
12 | B9 | 35.9
13 | B10 | 16.5
14 | Tridecanoyl-[γGlu][AEEA][AEEA][dQ]R[αMeP][hArg][BLeu]SHKG[Pip′][Nle][Phe(4-Cl)]-OH [Apelin polypeptide SEQ ID NO: 501] | 68.2
15 | B11 | 23.1

Biological target: T2, human APJ receptor
Assay: cell-based or functional assay

Row | Binder | EC50 Human APJ Receptor (GTPγS assay) [nM]
16 | B1 | 11
17 | B2 | 12.8
18 | B3 | 9.18
19 | B4 | 158
20 | Tridecanoyl-[AC4Abu][AEEA][AEEA]QR[αMeP][hArg][BLeu]SHKG[Oic][Nle]P[Phe(4-Cl)]-OH [Apelin polypeptide SEQ ID NO: 392] | 0.584
21 | Tridecanoyl-[γGlu][AEEA][AEEA][dQ]R[αMeP][hArg][BLeu]SHKG[Oic][Nle][Aib][Phe(4-Cl)]-OH [Apelin polypeptide SEQ ID NO: 505] | 0.0707
22 | B5 | 0.16
23 | B6 | 2.81
24 | B7 | 5.13
25 | Tridecanoyl-[γGlu][AEEA][AEEA][dQ]R[αMeP][hArg][BLeu]SHKG[Oic][Nle][αMeP][Phe(4-Cl)]-OH [Apelin polypeptide SEQ ID NO: 502] | 0.456
26 | B8 | 53.2
27 | B9 | 10.3
28 | B10 | 6.36
29 | Tridecanoyl-[γGlu][AEEA][AEEA][dQ]R[αMeP][hArg][BLeu]SHKG[Pip′][Nle][Phe(4-Cl)]-OH [Apelin polypeptide SEQ ID NO: 501] | 10.9
30 | B11 | 1.39
